Test results reported in paper PMC6499816 (2019).

How the values were obtained:
Experiment in all cases: BLI (biotin peptide on tip)
FYCO1 = molecular target: T1, FYCO1 (Homo sapiens (Human), UniProt Q9BQS8)
T1 chain: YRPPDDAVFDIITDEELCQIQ

ATG13 = molecular target: T2, ATG13 (Homo sapiens (Human), UniProt O75143)
T2 chain: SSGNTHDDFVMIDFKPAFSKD

P62 = molecular target: T3, P62 (Homo sapiens (Human), UniProt Q13501)
T3 chain: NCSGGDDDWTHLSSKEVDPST

Kd (FYCO1): 3000 nM
Kd (ATG13): 480 nM
Kd (P62): 2700 nM
B1: LC3C (protein)
chain: MPPPQKIPSVRPFKQRKSLAIRQEEVAGIRAKFPNKIPVVVERYPRETFLPPLDKTKFLVPQELTMTQFLSIIRSRMVLRATEAFYLLVNNKSLVSMSATMAEIYRDYKDEDGFVYMTYASQETFG
